Assay results published in IntAct's records for PubMed 38029384.

B1: Coiled-coil domain-containing protein 124 (Homo sapiens), Q96CT7 (parent)
chain: MPKKFQGENTKSAAARARRAEAKAAADAKKQKELEDAYWKDDDKHVMRKEQRKEEKEKRRLDQLERKKETQRLLEEEDSKLKGGKAPRVATSSKVTRAQIEDTLRRDHQLREAPDTAEKAKSHLEVPLEENVNRRVLEEGSVEARTIEDAIAVLSVAEEAADRHPERRMRAAFTAFEEAQLPRLKQENPNMRLSQLKQLLKKEWLRSPDNPMNQRAVPFNAPK

Legend:
[1] = variants of: B1; settings: with npm_human NPM1, P06748
[2] = variants of: B1; settings: with npm_human NPM1, P06748; remark: listed apart in the source

Sequence of npm_human NPM1, P06748 (P06748 whole entry): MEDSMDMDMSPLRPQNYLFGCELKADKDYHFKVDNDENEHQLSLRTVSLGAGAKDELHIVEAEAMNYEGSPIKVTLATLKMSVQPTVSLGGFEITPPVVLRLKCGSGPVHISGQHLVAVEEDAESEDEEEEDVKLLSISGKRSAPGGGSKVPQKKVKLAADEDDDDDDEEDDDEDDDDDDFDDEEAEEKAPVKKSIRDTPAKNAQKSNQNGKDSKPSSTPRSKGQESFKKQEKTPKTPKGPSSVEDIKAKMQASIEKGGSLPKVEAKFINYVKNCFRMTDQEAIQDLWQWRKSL

Variant	effect of a mutation on the interaction [1]	effect of a mutation on the interaction [2]
MPKKFQGENTKSAAARARRAEAKAAADAKKQKELEDAYWKDDDKHVMRKEQRKEEKEKRRLDQLERKKETQRLLEEEDSKLKGGKAPRVATSSKVTRAQIEDTLRRDHQLREAPDTAEKAKSHLEVPLEENVNRRVLEEGAVEARTIEDAIAVLSVAEEAADRHPERRMRAAFTAFEEAQLPRLKQENPNMRLSQLKQLLKKEWLRSPDNPMNQRAVPFNAPK [S141A]	decreasing interaction strength	with no effect
MPKKFQGENTKSAAARARRAEAKAAADAKKQKELEDAYWKDDDKHVMRKEQRKEEKEKRRLDQLERKKETQRLLEEEDSKLKGGKAPRVATSSKVTRAQIEDTLRRDHQLREAPDTAEKAKAHLEVPLEENVNRRVLEEGSVEARTIEDAIAVLSVAEEAADRHPERRMRAAFTAFEEAQLPRLKQENPNMRLSQLKQLLKKEWLRSPDNPMNQRAVPFNAPK [S122A]	decreasing interaction strength	disrupting interaction strength
MPKKFQGENTKSAAARARRAEAKAAADAKKQKELEDAYWKDDDKHVMRKEQRKEEKEKRRLDQLERKKETQRLLEEEDSKLKGGKAPRVATSSKVTRAQIEDTLRRDHQLREAPDTAEKAKAHLEVPLEENVNRRVLEEGAVEARTIEDAIAVLSVAEEAADRHPERRMRAAFTAFEEAQLPRLKQENPNMRLSQLKQLLKKEWLRSPDNPMNQRAVPFNAPK [S122A;S141A]	decreasing interaction strength	with no effect
